Reference: patent US20150329642A1 (Genmab, published 2015)

Assays:
cMetECDHis [1] = target: T1, cMetECDHis (human, UniProt P08581 25-932, limits assumed, biotinylated in the cross-block ELISA of Example 17); assay: cross-block ELISA; competitor 062
T1 construct: Expressed in HEK-293F cells; also called soluble cMetECDHis; biotinylated cMetECDHis
Protocol: (§1) First, the optimal coating concentrations of the tested anti-c-Met antibodies and the optimal cMetECDHis concentration were determined. Therefore, ELISA wells were coated overnight at 4° C. with anti-c-Met HuMabs serially diluted in PBS (8 μg/mL in 2-fold dilutions). Next, the ELISA wells were washed with PBST (PBS supplemented with 0.05% Tween-20 [Sigma-Aldrich, Zwijndrecht, The Netherlands]) and blocked for one hour at room temperature (RT) with PBSTC (PBST supplemented 2% [v/v] chicken serum [Gibco, Paisley, Scotland]). Subsequently, the ELISA wells were washed with PBST and incubated for one hour at RT with biotinylated cMetECDHis serially diluted in PBSTC (1 μg/mL in 2-fold dilutions). Unbound biotinylated cMetECDHis was washed away with PBST, and bound biotinylated cMetECDHis was incubated for one hour at RT with 0.1 μg/mL Streptavidin-poly-HRP (Sanquin, Amsterdam, The Netherlands) diluted in PBST.
(§2) ELISA wells were coated with anti-c-Met antibody at a sub-optimal dose as described above. After blocking of the ELISA wells, they were incubated with the predetermined concentration of biotinylated cMetECDHis in the presence of an excess of anti-c-Met antibody. The reaction was developed as described above. Residual binding was expressed as a percentage relative to the binding observed in the absence of competitor antibody.

cMetECDHis [2] = target: T1, cMetECDHis; assay: cross-block ELISA; competitor 024
Protocol: as §1, §2

cMetECDHis [3] = target: T1, cMetECDHis; assay: cross-block ELISA; competitor 022
Protocol: as §1, §2

cMetECDHis [4] = target: T1, cMetECDHis; assay: cross-block ELISA; competitor 5D5
Protocol: as §1, §2

cMetECDHis [5] = target: T1, cMetECDHis; assay: cross-block ELISA; competitor 035
Protocol: as §1, §2

cMetECDHis [6] = target: T1, cMetECDHis; assay: cross-block ELISA; competitor 181
Protocol: as §1, §2

cMetECDHis [7] = target: T1, cMetECDHis; assay: cross-block ELISA; competitor G11-HZ
Protocol: as §1, §2

cMetECDHis [8] = target: T1, cMetECDHis; assay: cross-block ELISA; competitor 005
Protocol: as §1, §2

cMetECDHis [9] = target: T1, cMetECDHis; assay: cross-block ELISA; competitor 058
Protocol: as §1, §2

cMetECDHis [10] = target: T1, cMetECDHis; assay: BLI (Octet); antibody captured, cMetECDHis in solution
Protocol: Antibody binding to cMetECDHis was analyzed by means of Bio-Layer Interferometry (BLI) technology on the Octet System (Fortebio, Menlo Park, USA). Anti-human IgG coated biosensors (Fc-specific) were used to capture anti-c-Met antibodies according to the procedure recommended by the manufacturer. cMetECDHis derived from HEK293 cells was loaded on top of the immobilized anti-c-Met antibodies by placing the loaded biosensor into a well containing 10 μg/mL cMetECDHis diluted in 10 times diluted kinetics buffer (Fortebio). The difference in reflection of light (AA, nm) of the biosensor surface due to the binding of cMetECDHis was measured in real time during approximately 10 minutes and was used by the Octet software (V4.0, Fortebio) to calculate the association constant (kₐ [1/M×s]). Next, the loaded biosensor was placed into a well containing only kinetics buffer (10 times diluted in PBS) to determine the dissociation constant (kd [1/s]). Kinetics analysis was performed to determine the affinity (KD [M]) using model 1:1 (langmuir). As a positive control, 0.2 μg/mL 5D5 IgG1 produced in HEK293 cells, was used.

cMetECDHis [11] = target: T1, cMetECDHis; assay: cross-block ELISA; competitor 045
Protocol: as §1, §2

cMetECDHis [12] = target: T1, cMetECDHis; assay: cross-block ELISA; competitor 101
Protocol: as §1, §2

cMetECDHis [13] = target: T1, cMetECDHis; assay: cross-block ELISA; competitor 008
Protocol: as §1, §2

cMetECDHis [14] = target: T1, cMetECDHis; assay: cross-block ELISA; competitor 006
Protocol: as §1, §2

cMetECDHis [15] = target: T1, cMetECDHis; assay: cross-block ELISA; competitor 069
Protocol: as §1, §2

cMetECDHis [16] = target: T1, cMetECDHis; assay: cross-block ELISA; competitor 064
Protocol: as §1, §2

cMetECDHis [17] = target: T1, cMetECDHis; assay: cross-block ELISA; competitor 098
Protocol: as §1, §2

Binder | residual binding, % of no competitor (cMetECDHis [1]) [%] | residual binding, % of no competitor (cMetECDHis [2]) [%] | residual binding, % of no competitor (cMetECDHis [3]) [%] | residual binding, % of no competitor (cMetECDHis [4]) [%] | residual binding, % of no competitor (cMetECDHis [5]) [%] | residual binding, % of no competitor (cMetECDHis [6]) [%] | residual binding, % of no competitor (cMetECDHis [7]) [%] | residual binding, % of no competitor (cMetECDHis [8]) [%] | residual binding, % of no competitor (cMetECDHis [9]) [%] | Kd (cMetECDHis [10]) [nM] | koff (cMetECDHis [10]) [s⁻¹] | kon (cMetECDHis [10]) [M⁻¹ s⁻¹] | residual binding, % of no competitor (cMetECDHis [11]) [%] | residual binding, % of no competitor (cMetECDHis [12]) [%] | residual binding, % of no competitor (cMetECDHis [13]) [%] | residual binding, % of no competitor (cMetECDHis [14]) [%] | residual binding, % of no competitor (cMetECDHis [15]) [%] | residual binding, % of no competitor (cMetECDHis [16]) [%] | residual binding, % of no competitor (cMetECDHis [17]) [%]
anti-c-Met HuMab 008 (IgG1) (antibody, V domains shown, also called TH1016-008; PC1016-008) VH: EVQLVQSGAEVKKPGESLKISCKGSGYSFTSYWIGWVRQMPGKGLEWMGIIYPGDSETRYSPSFQGQVTISADKSISTAYLQWSSLKASDTAMYYCARQEITGEFDYWGQGTLVTVSS VL: AIQLTQSPSSLSASVGDRVTITCRASQGISSALAWYQQKPGKAPKLLIYDASSLESGVPSRFSGSGSGTDFTLTISSLQPEDFATYYCQQFNSYPRTFGQGTKVEIK | 100 | 103 | 82.1 | 32.4 | 32.9 | 111 | 2.7 | 63.9 | 40.8 | 5.12 | 0.00157 | 308000 | 100 | 101 | 5.4 | 47.3 | 104 | 107 | 107
anti-c-Met HuMab 005 (IgG1) (antibody, V domains shown, also called TH1016-005; PC1016-005) VH: QVQLVQSGAEVKKPGSSVKVSCKASGGTFSSYGFGWVRQAPGQGLEWMGRISPILGIANYAQMFQGRVTITADKSTSTAYMELSSLRSEDTAVYYCARDVGYDWPDTFDIWGQGTMVIVSS VL: DIQMTQSPSSLSASVGDRVTITCRASQGISSWLAWYQQKPEKAPKSLIYAASSLQSGVPSRFSGGGSGTDFTLTISSLQPEDFATYYCQQYNSFPPTFGQGTKVEIK | 118 | 114 | 4.9 | 2.9 | 84.9 | 131 | 76.8 | 7.7 | 3.6 | 7.92 | 0.00252 | 318000 | 117 | 103 | 81.9 | 18.2 | 124 | 118 | 110
anti-c-Met HuMab 006 (IgG1) (antibody, V domains shown, also called TH1016-006; PC1016-006) VH: QVQLVQSGAEVKKPGSSVKVSCKASGGTFSSFGIGWVRQAPGQGLEWMGRIFPILGTANYAQMFQGRVTITADKSTSTAYMELTSLRSEDTAVYYCARDVGYDSADAFDIWGQGTMVTVSS VL: DIQMTQSPSSLSASVGDRVTITCRASQGISSWLAWYQQKPEKAPKSLIYAASSLQSGVPSRFSGSGSGTDFTLTISSLQPEDFATYYCQQYNSYPPTFGQGTKVEIK | 119 | 113 | 4.6 | 3.1 | 67.5 | 124 | 54 | 11.3 | 3.6 | 9.89 | 0.0042 | 425000 | 114 | 106 | 58.8 | 14.6 | 124 | 122 | 111
